This is an account of results in paper PMC10899749.

Data set [1] deals with H-NS (Edwardsiella piscicida EIB202). The experiment in a line: competition EMSA. The conditions noted are these: EMSA: 20 ng Cy5 probe, 20 mM Tris pH 8.0, 150 mM NaCl, 0.1 mM DTT, 0.1 mM EDTA, 200 ng poly(dI:dC), 25 C, 30 min; 10% PAGE in Tris-glycine at 4 C. On the technique in general: Mobility shift assays separate free from complexed probe on a gel.
Data set [2] concerns H-NS K120ace (Edwardsiella piscicida EIB202). Briefly: competition EMSA. The conditions noted are these: EMSA: 20 ng Cy5 probe, 20 mM Tris pH 8.0, 150 mM NaCl, 0.1 mM DTT, 0.1 mM EDTA, 200 ng poly(dI:dC), 25 C, 30 min; 10% PAGE in Tris-glycine at 4 C.

PesrB (esrB promoter) came in with a binding signal (% H-NS-bound DNA lost) in data set [1] of 43. Also, the binding signal (% H-NS K120ace-bound DNA lost) in data set [2] stood at 87.
